± gives the standard deviation.
Test: collision cross section of modified peptide (TIMS, N2, iRT-aligned); higher = larger / more extended gas-phase ion
Outline: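 Synthetic peptide pools (~100 fmol/µL in 2% acetonitrile/0.1% formic acid, iRT standard spiked 1:40) were separated on a 120-min nanoflow C18 gradient at 60 °C. They were analysed on a timsTOF Pro/HT (dda-PASEF, nitrogen, ~2.4 mbar) and identified with MaxQuant. 1/K0 was calibrated with three reference ions and aligned run-wise to the median iRT peptide deviation. Collision cross section came from the Mason-Schamp equation, averaging 1–3 technical replicates of the most abundant feature per charge state.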

[1] = charge state: 2, modification: Formyl
[2] = charge state: 2, modification: Trimethyl (K)
[3] = charge state: 2, modification: Malonyl
[4] = charge state: 3, modification: Malonyl
[5] = charge state: 2, modification: Methyl (K)
[6] = charge state: 3, modification: Methyl (K)
[7] = charge state: 2, modification: Citrullination (R)
[8] = charge state: 2, modification: Acetyl (K)
[9] = charge state: 3, modification: Acetyl (K)
[10] = charge state: 2, modification: hydroxyisobutyryl
[11] = charge state: 3, modification: Citrullination (R)
[12] = charge state: 2, modification: Glutarylation
[13] = charge state: 2, modification: Propionyl
[14] = charge state: 3, modification: Hydroxyproline
[15] = charge state: 2, modification: Phospho (Y)
[16] = charge state: 2, modification: GlyGly (K)
[17] = charge state: 3, modification: GlyGly (K)
[18] = charge state: 2, modification: Dimethyl (K)
[19] = charge state: 3, modification: Dimethyl (K)
[20] = charge state: 2, modification: Crotonyl
[21] = charge state: 3, modification: HexNAc (ST)
[22] = charge state: 2, modification: Butyryl
[23] = charge state: 3, modification: Trimethyl (K)
[24] = charge state: 2, modification: Nitro (Y)
[25] = charge state: 3, modification: Butyryl
[26] = charge state: 3, modification: hydroxyisobutyryl
[27] = charge state: 3, modification: Methyl (R)

“FSAYIKNSNPALNDNLEK [_FSAYIK(Formyl)NSNPALNDNLEK_]” gave a collision cross section [1] of 479.47 ± 1.3 Å² and a collision cross section (charge state: 3, modification: Formyl) of 528.92 ± 9.9 Å².

In the case of “GFCFITYTDEEPVKK [_GFCFITYTDEEPVK(Trimethyl (K))K_]”, the collision cross section [2] is reported as 480.23 Å².

For LGNDFHTNKR [_LGNDFHTNK(Malonyl)R_], the collision cross section [3] was 378.38 Å².

DHLSDKESK [_DHLSDK(Malonyl)ESK_] gave a collision cross section [3] of 349.37 ± 0.029 Å² and a collision cross section [4] of 411.48 Å².

Work on ASEALLKQLK [_ASEALLK(Methyl (K))QLK_] yielded a collision cross section [5] of 369.33 ± 0.7 Å² and a collision cross section [6] of 450.1 ± 3.1 Å².

Substance “IVFSGNLFQHQEDSKK [_IVFSGNLFQHQEDSK(Methyl (K))K_]” has a collision cross section [5] of 490.37 Å² and a collision cross section [6] of 529.21 ± 1.6 Å².

“GLATFPSRGAK [_GLATFPSR(Citrullination (R))GAK_]” gave a collision cross section [7] of 353.86 ± 0.53 Å².

GEVQVSDKER [_GEVQVSDK(Formyl)ER_] showed a collision cross section [1] of 353.55 ± 2.5 Å².

Work on “DTGEKLTVAENEAETK [_DTGEK(Acetyl (K))LTVAENEAETK_]” yielded a collision cross section [8] of 441.95 ± 2.1 Å² and a collision cross section [9] of 512.62 Å².

“LGSPSGKTGTCR [_LGSPSGK(hydroxyisobutyryl)TGTCR_]” showed a collision cross section [10] of 375.43 Å².

“GFGRGGAESHTFK [_GFGR(Citrullination (R))GGAESHTFK_]” gave a collision cross section [7] of 413.94 ± 1 Å² and a collision cross section [11] of 465.74 ± 2.2 Å².

Work on “AAQASDLEKIHLDEK [_AAQASDLEK(Malonyl)IHLDEK_]” yielded a collision cross section [3] of 460.56 ± 1.1 Å² and a collision cross section [4] of 500.48 Å².

Work on SGFGKFER [_SGFGK(Gluratylation)FER_] yielded a collision cross section [12] of 340.69 ± 0.69 Å².

Work on LQLEIDQKK [_LQLEIDQK(Gluratylation)K_] yielded a collision cross section [12] of 373.2 ± 0.7 Å².

For “GFALVGVGSEASSKK [_GFALVGVGSEASSK(Propionyl)K_]”, the collision cross section [13] was 411.51 Å².

With “GLPGEPGPRGLLGPK [_GLP(Hydroxyproline)GEPGPRGLLGPK_]” the collision cross section [14] was 506.02 ± 0.37 Å².

For LAEEENKAK [_LAEEENK(Propionyl)AK_], the collision cross section [13] was 352.31 ± 0.33 Å².

TLQKQSVVYGGK [_TLQK(Biotin)QSVVYGGK_] showed a collision cross section (charge state: 2, modification: Biotin) of 406.33 Å².

Substance “ITLSKHQNVQLPR [_ITLSK(Methyl (K))HQNVQLPR_]” has a collision cross section [5] of 432.38 Å² and a collision cross section [6] of 510.25 ± 21 Å².

Substance VVDLLAPYAK [_VVDLLAPY(Phospho (Y))AK_] has a collision cross section [15] of 379.49 ± 0.074 Å².

For “LLFSNTAAQKLR [_LLFSNTAAQK(GlyGly (K))LR_]”, the collision cross section [16] was 433.64 ± 0.96 Å² and the collision cross section [17] was 492.29 ± 2 Å².

“GSLGAQKLANTCFNEIEK [_GSLGAQK(Biotin)LANTCFNEIEK_]” showed a collision cross section (charge state: 3, modification: Biotin) of 538.06 ± 0.96 Å².

For “GERGPPGPPGR [_GERGPPGP(Hydroxyproline)PGR_]”, the collision cross section [14] was 409.61 ± 0.34 Å².

Substance “DSSPTTNSKLSALQR [_DSSPTTNSK(Dimethyl (K))LSALQR_]” has a collision cross section [18] of 423.14 ± 1.1 Å² and a collision cross section [19] of 472.53 ± 1.6 Å².

GAEKTEVAEPR [_GAEK(Crotonyl)TEVAEPR_] showed a collision cross section [20] of 370.18 ± 9 Å².

“DYSAPVNFISAGLKK [_DYSAPVNFISAGLK(Acetyl (K))K_]” gave a collision cross section [8] of 433.43 ± 2.4 Å² and a collision cross section [9] of 518.95 ± 1.1 Å².

Work on “SLYASSPGGVYATR [_S(HexNAc (ST))LYASSPGGVYATR_]” yielded a collision cross section [21] of 478.28 ± 0.91 Å².

LLEEEDSKLK [_LLEEEDSK(Butyryl)LK_] showed a collision cross section [22] of 385.99 ± 0.85 Å².

“PANEKATDDYHYEK [_PANEK(Acetyl (K))ATDDYHYEK_]” gave a collision cross section [8] of 436.41 ± 2.5 Å² and a collision cross section [9] of 502.57 ± 2 Å².

Work on IQTKAGEATVK [_IQTK(Crotonyl)AGEATVK_] yielded a collision cross section [20] of 371.41 ± 0.56 Å².

Work on TLQKQSVVYGGK [_TLQK(Butyryl)QSVVYGGK_] yielded a collision cross section [22] of 396.52 ± 0.85 Å².

“VETTVTSLKTK [_VETTVTSLK(Dimethyl (K))TK_]” showed a collision cross section [18] of 385.99 ± 0.37 Å² and a collision cross section [19] of 450.04 ± 3.7 Å².

ITASLCDLKSR [_ITASLCDLK(Acetyl (K))SR_] gave a collision cross section [8] of 383.24 ± 1.3 Å².

In the case of SGFGKFER [_SGFGK(Butyryl)FER_], the collision cross section [22] is reported as 337.09 ± 1.2 Å².

“VDIDAPDVSIEGPDAKLK [_VDIDAPDVSIEGPDAK(Methyl (K))LK_]” showed a collision cross section [5] of 453.93 ± 0.34 Å² and a collision cross section [6] of 544.25 ± 0.42 Å².

For “ASDTSSETVFGKR [_ASDTSSETVFGK(Trimethyl (K))R_]”, the collision cross section [2] was 414.52 ± 0.6 Å² and the collision cross section [23] was 471.76 ± 2.7 Å².

“LTSLNVKYNNDK [_LTSLNVK(Propionyl)YNNDK_]” showed a collision cross section [13] of 410.81 ± 0.38 Å².

“DASTLQSQKAEGTGDAK [_DASTLQSQK(Dimethyl (K))AEGTGDAK_]” gave a collision cross section [18] of 438.33 ± 1.3 Å² and a collision cross section [19] of 482.19 ± 4.5 Å².

For TPNLYIYSKK [_TPNLYIYSK(Dimethyl (K))K_], the collision cross section [18] was 376.02 ± 0.46 Å² and the collision cross section [19] was 432.06 ± 2.8 Å².

With “KSQAGASELGPFSDPR [_KSQAGASELGPFS(HexNAc (ST))DPR_]” the collision cross section [21] was 503.83 ± 1.1 Å².

With “ANEKTESSSAQQVAVSR [_ANEK(Crotonyl)TESSSAQQVAVSR_]” the collision cross section [20] was 431.52 ± 7.9 Å² and the collision cross section (charge state: 3, modification: Crotonyl) was 536.98 ± 2.1 Å².

For YTAQVDAEEK [_Y(Nitro (Y))TAQVDAEEK_], the collision cross section [24] was 358.81 ± 0.55 Å².

In the case of LLFSNTAAQKLR [_LLFSNTAAQK(Butyryl)LR_], the collision cross section [22] is reported as 405.4 ± 0.23 Å² and the collision cross section [25] is reported as 483.12 ± 3.2 Å².

Work on “AAHGRGALAEAAR [_AAHGR(Citrullination (R))GALAEAAR_]” yielded a collision cross section [7] of 378.79 ± 0.65 Å² and a collision cross section [11] of 458.38 ± 1.8 Å².

Work on “TQDQISNIKYHEEFEK [_TQDQISNIK(hydroxyisobutyryl)YHEEFEK_]” yielded a collision cross section [10] of 492.05 Å² and a collision cross section [26] of 557.98 ± 1.2 Å².

In the case of “LLALSGPGGGRGR [_LLALSGPGGGR(Methyl (R))GR_]”, the collision cross section (charge state: 2, modification: Methyl (R)) is reported as 387.94 ± 0.53 Å² and the collision cross section [27] is reported as 446.53 ± 3.2 Å².

Work on LDEKENLSAK [_LDEK(Malonyl)ENLSAK_] yielded a collision cross section [3] of 361.65 ± 0.75 Å².

For “SGNLTEDDKHNNAK [_SGNLTEDDK(hydroxyisobutyryl)HNNAK_]”, the collision cross section [10] was 427.86 ± 0.82 Å² and the collision cross section [26] was 488.54 ± 1.1 Å².

SEASSEFAKK [_SEASSEFAK(Acetyl (K))K_] showed a collision cross section [8] of 349.46 ± 1 Å².

With LQNSYQPTNK [_LQNSY(Phospho (Y))QPTNK_] the collision cross section [15] was 366.81 ± 0.064 Å².

GGRGTPGK [_GGRGTP(Hydroxyproline)GK_] showed a collision cross section (charge state: 2, modification: Hydroxyproline) of 291.37 ± 3.4 Å².

In the case of ASNAAVKLAESK [_ASNAAVK(Butyryl)LAESK_], the collision cross section [22] is reported as 375.52 ± 1.2 Å².

Substance ISALQGKLSK [_ISALQGK(Acetyl (K))LSK_] has a collision cross section [8] of 353.22 ± 0.93 Å² and a collision cross section [9] of 432.36 Å².

With KFGVLSDNFK [_K(GlyGly (K))FGVLSDNFK_] the collision cross section [16] was 380.5 ± 0.25 Å² and the collision cross section [17] was 435.06 ± 2 Å².

Substance SLKLNTAEDAK [_SLK(Methyl (K))LNTAEDAK_] has a collision cross section [5] of 364.71 ± 0.36 Å² and a collision cross section [6] of 470.64 ± 4.7 Å².

PATSYVR [_PATSY(Nitro (Y))VR_] gave a collision cross section [24] of 318.95 ± 2.2 Å².

Substance “ALASIDSKLNQAK [_ALASIDSK(Malonyl)LNQAK_]” has a collision cross section [3] of 399.65 ± 0.028 Å².

“ITESVAETAQTIKK [_ITESVAETAQTIK(Butyryl)K_]” showed a collision cross section [22] of 425.5 ± 0.24 Å² and a collision cross section [25] of 518.39 ± 2.7 Å².

Work on SEASSEFAKK [_SEASSEFAK(Formyl)K_] yielded a collision cross section [1] of 345.37 ± 1.6 Å².

“DTPTSAGPNSFNKGK [_DTPTSAGPNSFNK(Propionyl)GK_]” gave a collision cross section [13] of 410.13 ± 0.64 Å².

Work on “FSHSVQNSERGK [_FSHSVQNSER(Citrullination (R))GK_]” yielded a collision cross section [7] of 390.38 ± 0.44 Å² and a collision cross section [11] of 441.33 ± 1.8 Å².

For “DLGKFQVATDALK [_DLGK(Butyryl)FQVATDALK_]”, the collision cross section [22] was 411.4 ± 0.85 Å².

In the case of “GRGLPGPAESLR [_GR(Methyl (R))GLPGPAESLR_]”, the collision cross section [27] is reported as 459.68 ± 1.5 Å².

For “GGGGGGGGGAPRGR [_GGGGGGGGGAPR(Citrullination (R))GR_]”, the collision cross section [7] was 333.41 ± 0.64 Å² and the collision cross section [11] was 420.82 ± 2.9 Å².

Substance TLQKQSVVYGGK [_TLQK(Malonyl)QSVVYGGK_] has a collision cross section [3] of 395.45 ± 1.1 Å².

GEVQVSDKER [_GEVQVSDK(Propionyl)ER_] showed a collision cross section [13] of 360.54 ± 0.33 Å².

With “VGVEVPDVNIEGPEGKLK [_VGVEVPDVNIEGPEGK(Crotonyl)LK_]” the collision cross section [20] was 462.4 ± 1.4 Å².

For “VMVAPISGSVTTGTK [_VMVAPIS(HexNAc (ST))GSVTTGTK_]”, the collision cross section (charge state: 2, modification: HexNAc (ST)) was 423.51 ± 0.62 Å².

“VLATQPGPGRGR [_VLATQPGPGR(Citrullination (R))GR_]” gave a collision cross section [7] of 364.01 ± 0.27 Å² and a collision cross section [11] of 447.25 Å².

Substance “LLEEEDSKLK [_LLEEEDSK(Trimethyl (K))LK_]” has a collision cross section [2] of 388.34 ± 1.1 Å² and a collision cross section [23] of 441.46 ± 2.4 Å².

From the supplement of paper PMC10598134
